Broadly, the Kd is the free concentration of one partner at which half of the binding sites on the other are occupied at equilibrium, for simple one-to-one binding. As a reminder, the koff is the first-order rate constant of dissociation. A word on the kon: it is the rate constant with which the complex forms.

Assay [1] concerns the target recombinant human IL-31 protein (Peprotech) (human) (UniProt Q6EBC2).
The target in assay [2] is recombinant cynomolgus monkey IL-31 (ECD with His Tag, Sino Biological) (cynomolgus monkey).
For assay [3], the target named is recombinant human IL-31 protein (Peprotech) (human) (UniProt Q6EBC2). The source holds these as a separate data set.
Sequence of recombinant human IL-31 protein (Peprotech) (human) (Q6EBC2 24-164 limits assumed): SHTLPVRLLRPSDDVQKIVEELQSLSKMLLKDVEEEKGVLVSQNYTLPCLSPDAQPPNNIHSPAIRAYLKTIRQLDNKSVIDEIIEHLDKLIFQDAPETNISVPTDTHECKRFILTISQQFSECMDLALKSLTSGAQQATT
The target is the same in assay [4]. The source holds these as a separate data set.
The target is the same in assay [5]. The source holds these as a separate data set.
Assay [6] has as its target recombinant cynomolgus monkey IL-31 (ECD with His Tag, Sino Biological) (cynomolgus monkey). In words: SPR, IL-31-His captured, scFv analyte (30 and 10 nM). A general note: Surface plasmon resonance follows binding to a sensor surface in real time, without labels.
In assay [7] the target is recombinant human IL-31 protein (Peprotech) (human) (UniProt Q6EBC2). The assay can be described thus: cell-based or functional assay.
Assay [8] addresses recombinant cynomolgus monkey IL-31 (ECD with His Tag, Sino Biological) (cynomolgus monkey). In words: SPR, IL-31-His captured, scFv analyte, full titration mode.
The target is the same in assay [9]. In words: SPR, IL-31-His captured, scFv analyte, screening mode.
For assay [10], the target named is marmoset IL-4R ECD (marmoset (Callithrix jacchus)) (UniProt Q0PIT7). In words: SPR, direct setup, marmoset IL-4R ECD immobilized.
Sequence of marmoset IL-4R ECD (marmoset (Callithrix jacchus)) (Q0PIT7 entry or part of it limits assumed): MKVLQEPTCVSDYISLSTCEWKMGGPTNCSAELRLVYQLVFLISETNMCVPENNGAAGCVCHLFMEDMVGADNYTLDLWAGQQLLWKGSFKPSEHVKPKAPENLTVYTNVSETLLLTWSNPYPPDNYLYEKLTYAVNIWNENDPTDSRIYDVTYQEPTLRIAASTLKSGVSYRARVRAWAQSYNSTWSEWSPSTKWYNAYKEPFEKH
The target in assay [11] is Human IL-4R-Fc (human) (UniProt P24394). In words: SPR, hIL-4R-Fc captured, scFv analyte.
Assay [12] deals with cynomolgus IL-4R ECD (cynomolgus monkey (Macaca fascicularis)). The assay can be described thus: SPR, direct setup, cynomolgus IL-4R ECD immobilized.
Sequence of cynomolgus IL-4R ECD (cynomolgus monkey (Macaca fascicularis)) (A0A2K5 entry or part of it limits assumed): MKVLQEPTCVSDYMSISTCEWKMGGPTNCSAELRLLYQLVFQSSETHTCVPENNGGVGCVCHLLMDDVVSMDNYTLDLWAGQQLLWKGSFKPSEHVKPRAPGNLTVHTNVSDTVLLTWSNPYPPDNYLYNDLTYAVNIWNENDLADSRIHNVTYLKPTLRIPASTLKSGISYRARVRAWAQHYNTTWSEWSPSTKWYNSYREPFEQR
The target in assay [13] is cynomolgus IL-4R-Fc (cynomolgus monkey (Macaca fascicularis)). The assay can be described thus: SPR, capture setup, cynomolgus IL-4R-Fc captured.
Sequence of cynomolgus IL-4R-Fc (cynomolgus monkey (Macaca fascicularis)) (chain, as listed by the source): as the sequence (A0A2K5 entry or part of it limits assumed) above
Assay [14] addresses human IL-4R on cells (HEK-Blue IL-4/IL-13 cells, human PBMC, human whole blood) (human) (UniProt P24394). The assay can be described thus: cell-based or functional assay.

Where two headings read alike, the source gives them in different places.

B1: BMS-981164 (antibody, from another filing, V domains shown)
VH: QVQLVQSGAEVKKPGASVKVSCKASGYTLTRYWMQWVRQAPGQGLEWMGAIYPGDGDTRYSQKFQGRVTLTADKSTSTAYMELSSLRSEDTAVYYCAFPDGYYAAPYGMDYWGQGTLVTVSS
VL: DIQMTQSPSSLSASVGDRVTITCRASGNIHNYLAWYQQKPGKVPKLLIYNAKTLADGVPSRFSGSRSETQYSLTISSLQPEDVATYYCQHFWSTPWTFGQGTKVEIKR
With B1, the IC50 (read off the curve), human IL-31-induced IL-31RA/OSMR dimerization in assay [1] stood at 0.06 nM; in [3], 0.1 nM; in [4] it was 0.2 nM; in assay [5], 0.07 nM. The IC50, cynomolgus IL-31-induced IL-31RA/OSMR dimerization (RLU) [table under the graph] in assay [2] came out at 0.178 nM.

B2: PRO1900 (scFv, V domains shown)
VH: QSQLVESGGGRVQPGGSLRLSCAASGFSFSANYWICWVRQAPGKGLEWIVCIYIGSRADTYYAPWAKGRFTISKDNSKNTVYLQMNSLRAEDTATYFCARFSSGIYDLDRFFLWGQGTQVTVSS
V domain: AFQLTQSPSSLSASVGDRVTITCQASQSIDSWLAWYQQKPGKPPKLLIYQASKLASGVPSRFSGSGSGTDYTLTISSLQPEDFATYYCQTYYGGGHIGWGFGTGTKVTV
Turning to B2, in assay [6], the Kd is 1.07 nM, the dissociation rate constant (koff) amounted to 0.000594 s⁻¹ and the kon came to 554000 M⁻¹ s⁻¹. Besides, in assay [7], the IC50, neutralization of hIL-31-induced signaling in IL-31RA/OSMR dimerization assay was found to be 8.21 ng/mL and the rel. IC50 (IC50, BMS-981164/IC50, test sample) amounted to 0.73.

B3: PRO1643 (scFv, V domains shown)
VH: QSQLVESGGGLVQPGGSLRLSCAASGFSFSANYWICWVRQAPGKGLEWIVCIYIGSRADTYYAPWAKGRFTISKDNSKNTVYLQMNSLRAEDTAVYFCARFSSGIYDLDRFFLWGQGTLVTVSS
V domain: AFQLTQSPSSLSASVGDRVTITCQASQSIDSWLAWYQQKPGKPPKLLIYQASKLASGVPSRFSGSGSGTDYTLTISSLQPEDFATYYCQTYYGGGHIGWGFGTGTKVTV
With B3, in [8], the dissociation constant (Kd) is 0.557 nM, the koff amounted to 0.000426 s⁻¹ and the kon was determined as 764000 M⁻¹ s⁻¹. In assay [6], the Kd worked out at 1.17 nM, the koff was determined as 0.000587 s⁻¹ and the kon was 501000 M⁻¹ s⁻¹. Further, in assay [9], the dissociation constant (Kd) came out at 0.583 nM, the koff worked out at 0.000444 s⁻¹ and the on-rate (kon) is 761000 M⁻¹ s⁻¹.

B4: PRO1903 (scFv, V domains shown)
VH: QSQLVESGGGLVQPGGSLRLSCAASGFSFSANYWICWVRQAPGKGLEWIVCIYIGSRADTYYAPWAKGRFTISKDNSKNTVYLQMNSLRAEDTAVYFCARFSSGIYDLDRFFLWGQGTLVTVSS
V domain: AFQLTQSPSSLSASVGDRVTITCQASQSIESWLAWYQQKPGKPPKLLIYQASKLASGVPSRFSGSGSGTDYTLTISSLQPEDFATYYCQTYYGGGHIGWGFGTGTKVTV
Turning to B4, in assay [6], the Kd was determined as 1.39 nM, the koff was found to be 0.000605 s⁻¹ and the kon was 434000 M⁻¹ s⁻¹. Also, in assay [7], the IC50, neutralization of hIL-31-induced signaling in IL-31RA/OSMR dimerization assay amounted to 7.98 ng/mL and the rel. IC50 (IC50, BMS-981164/IC50, test sample) is 1.49.

B5: PRO1517 (scFv, V domains shown)
VH: EVQLVESGGGLVQPGGSLRLSCAASGFSSSSAHYMCWVRQAPGKGLEWIGCIYAGSRGSTYYASWAKGRFTISRDNSKNTVYLQMNSLRAEDTAVYYCARAAFVNRGVSWIWPYYFSLWGQGTLVTVSS
VL: DIQMTQSPSSLSASVGDRVTITCQASEDIESYLAWYQQKPGKAPKLLIYRASTLAYGVPSRFSGSGSGTDFTLTISSLQPEDFATYYCLGSSYSTGSNIFGTGTKVTVLG
In assay [10], B5 had a Kd of 0.392 nM, a koff of 0.00105 s⁻¹ and a kon of 2.67e+06 M⁻¹ s⁻¹. For the same molecule, in [11], the Kd is 0.0055 nM, the koff turned out to be 1.95e-05 s⁻¹ and the kon amounted to 3.55e+06 M⁻¹ s⁻¹. In assay [12], the Kd was 0.681 nM, the koff is 0.000404 s⁻¹ and the kon worked out at 594000 M⁻¹ s⁻¹. For the same molecule, in [13], the dissociation constant (Kd) amounted to 0.0946 nM, the koff worked out at 0.000182 s⁻¹ and the kon came to 1.92e+06 M⁻¹ s⁻¹. Besides, in assay [14], the IC50, neutralization of hIL-4-induced signaling, stat-6 reporter gene assay is 1.44 ng/mL; the IC50, neutralization of hIL-13-induced signaling, stat-6 reporter gene assay stood at 1.83 ng/mL; the rel. IC50 (IC50, dupilumab/IC50, test sample), hIL-4 is 0.39; the rel. IC50 (IC50, dupilumab/IC50, test sample), hIL-13 was 0.57.

B6: PRO1899 (scFv, V domains shown)
VH: EVQLVESGGGRVQPGGSLRLSCAASGFSSSSAHYMCWVRQAPGKGLEWIGCIYAGSRGSTYYASWAKGRFTISKASSTTVYLQMNSLRAEDTATYYCARAAFVNRGVSWIWPYYFSLWGQGTQVTVSS
VL: DIQMTQSPSSLSASVGDRVTITCQASEDIESYLAWYQQKPGKAPKLLIYRASTLAYGVPSRFSGSGSGTDFTLTISSLQPEDFATYYCLGSSYSTGSNIFGTGTKVTVLG
In assay [14], B6 had an IC50, neutralization of hIL-4 induced signaling, stat-6 reporter gene assay of 0.71 ng/mL; an IC50, neutralization of hIL-13 induced signaling, stat-6 reporter gene assay of 0.56 ng/mL; a rel. IC50 (IC50, dupilumab/IC50, test sample), hIL-4 of 1.61; a rel. IC50 (IC50, dupilumab/IC50, test sample), hIL-13 of 1.8.

B7: PRO1898 (scFv, V domains shown)
VH: EVQLVESGGGLVQPGGSLRLSCAASGFSSSSAHYMCWVRQAPGKGLEWIGCIYAGSRGSTYYASWAKGRFTISRDNSKNTVYLQMNSLRAEDTAVYYCARAAFVNRGVSWIWPYYFSLWGQGTLVTVSS
VL: DIQMTQSPSSLSARVGDRVTITCQASEDIESYLAWYQQKPGKAPKLLIYRASTLAYGVPSRFSGSGSGRDFTLTISSLQPEDFATYYCLGSSYSTGSNIFGTGTKVTVLG
In assay [14], B7 yielded an IC50, neutralization of hIL-4 induced signaling, stat-6 reporter gene assay of 1 ng/mL; an IC50, neutralization of hIL-13 induced signaling, stat-6 reporter gene assay of 1.15 ng/mL; a rel. IC50 (IC50, dupilumab/IC50, test sample), hIL-4 of 1.15; a rel. IC50 (IC50, dupilumab/IC50, test sample), hIL-13 of 0.87.

Source of the values: US20250282879A1.
